{"source": "paper PMC4066673", "substrate": "CCCCCCCCCCCCCC(=O)SCCNC(=O)CCNC(=O)[C@H](O)C(C)(C)COP(=O)(O)OP(=O)(O)OC[C@H]1O[C@@H](n2cnc3c(N)ncnc32)[C@H](O)[C@@H]1OP(=O)(O)O", "assay": "purified protein", "details": "pH 7.5; 25.0 °C"}
{"protein": "hTHEM4 (Homo sapiens) (protein) SSEEVILKDCSVPNPSWNKDLRLLFDQFMKKCEDGSWKRLPSYKRTPTEWIQDFKTHFLDPKLMKEEQMSQAQLFTRSFDDGLGFEYVMFYNDIEKRMVCLFQGGPYLEGPPGFIHGGAIATMIDATVGMCAMMAGGIVMTANLNINYKRPIPLCSVVMINSQLDKVEGRKFFVSCNVQSVDEKTLYSEATSLFIKLNPAKSLT", "values": [{"measurement": "kcat/Km", "result": "1.7e+06", "unit": "M⁻¹ s⁻¹"}]}
